This is an account of results in article PMC5555656 (Molecular Biology of the Cell, 2017).

The assay has as its target T1, hexahistidine (his6)-tagged Qc-SNARE Vam7 (yeast, UniProt P32912 1-316).
T1 sequence (looked up): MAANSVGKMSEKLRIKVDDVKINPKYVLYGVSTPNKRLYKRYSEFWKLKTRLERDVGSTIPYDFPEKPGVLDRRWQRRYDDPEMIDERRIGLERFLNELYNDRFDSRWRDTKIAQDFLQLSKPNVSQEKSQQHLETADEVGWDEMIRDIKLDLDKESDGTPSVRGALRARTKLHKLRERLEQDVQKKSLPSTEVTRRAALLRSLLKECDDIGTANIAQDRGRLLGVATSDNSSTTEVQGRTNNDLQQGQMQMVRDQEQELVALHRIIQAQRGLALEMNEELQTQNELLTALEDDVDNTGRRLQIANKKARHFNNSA
Briefly: pull-down.

B1: yeast vacuolar R-SNARE Nyv1, membrane-anchored (natural protein, UniProt Q12255 1-253, looked up)
chain: MKRFNVSYVEVIKNGETISSCFQPFQKNENYGTITSANEQITPVIFHNLIMDMVLPKVVPIKGNKVTKMSMNLIDGFDCFYSTDDHDPKTVYVCFTLVDMPKILPIRILSGLQEYESNATNELLSSHVGQILDSFHEELVEYRNQTLNSSGNGQSSNGNGQNTISDIGDATEDQIKDVIQIMNDNIDKFLERQERVSLLVDKTSQLNSSSNKFRRKAVNIKEIMWWQKVKNITLLTFTIILFVSAAFMFFYLW
B1: the binding result is “binds”.
